In US20260109782A1 (Chugai, published 2026):

How the values were obtained:
Experiment in all cases: cell-based or functional assay
[1] = molecular target: coagulation factor IX / activated coagulation factor IX (human), P00740
[2] = molecular target: human Factor X (Enzyme Research Laboratories, Inc.) (human, UniProt P00742 41-488)
[3] = molecular target: coagulation factor IX / activated coagulation factor IX (human) (UniProt P00740)
Sequence of coagulation factor IX / activated coagulation factor IX (human) (P00740 47-461): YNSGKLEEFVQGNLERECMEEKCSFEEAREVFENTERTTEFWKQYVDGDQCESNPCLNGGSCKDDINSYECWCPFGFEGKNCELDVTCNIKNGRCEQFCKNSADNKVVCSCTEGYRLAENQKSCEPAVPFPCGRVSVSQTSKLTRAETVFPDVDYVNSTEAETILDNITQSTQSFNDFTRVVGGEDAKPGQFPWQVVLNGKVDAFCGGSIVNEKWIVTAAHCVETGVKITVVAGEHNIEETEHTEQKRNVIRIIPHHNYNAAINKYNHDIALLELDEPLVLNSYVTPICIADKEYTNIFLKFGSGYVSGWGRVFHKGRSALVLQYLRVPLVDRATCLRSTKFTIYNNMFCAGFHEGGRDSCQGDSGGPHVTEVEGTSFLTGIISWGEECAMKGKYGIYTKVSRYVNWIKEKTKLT

Sequence of human Factor X (Enzyme Research Laboratories, Inc.) (P00742 other isoform, or with tags, fused parts or gaps limits assumed): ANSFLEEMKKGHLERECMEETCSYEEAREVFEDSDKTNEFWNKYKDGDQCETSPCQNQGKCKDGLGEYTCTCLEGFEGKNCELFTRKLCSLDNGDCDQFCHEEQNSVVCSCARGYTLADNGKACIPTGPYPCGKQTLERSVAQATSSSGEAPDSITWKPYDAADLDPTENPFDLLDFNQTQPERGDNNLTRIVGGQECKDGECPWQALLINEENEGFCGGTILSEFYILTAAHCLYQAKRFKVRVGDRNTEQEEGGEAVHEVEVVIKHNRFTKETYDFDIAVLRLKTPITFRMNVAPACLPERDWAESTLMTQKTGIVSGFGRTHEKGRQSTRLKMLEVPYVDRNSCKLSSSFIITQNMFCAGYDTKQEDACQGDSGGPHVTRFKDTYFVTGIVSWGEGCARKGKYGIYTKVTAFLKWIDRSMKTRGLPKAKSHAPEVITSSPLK
Sequence of coagulation factor IX / activated coagulation factor IX (human), P00740 (P00740 47-461): as the sequence (P00740 47-461) above

Binder | reduction of coagulation time against no antibody [1] [s] | reduction of coagulation time against no antibody [2] [s] | reduction of coagulation time against no antibody [3] [s]
commonly shared L chain antibody of A44 H chain, B26 H chain and hybrid L chain BBA(G) (bispecific antibody, V domains shown) VH 1: MQVQLQQSGAELAKPGASVKLSCKASGYTFTSSWMHWIKQRPGQGLEWLGYINPSSGYTKYNRKFRDKATLTADKSSSTAYMQLTSLTYEDSAVYYCARGGNGYYFDYWGQGTTLTVSS VH 2: MQVQLQQSGPELVKPGASVKISCKASGYTFTDNNMDWVKQSHGKGLEWIGDINTKSGGSIYNQKFKGKATLTIDKSSSTAYMELRSLTSEDTAVYYCARRRSYGYYFDYWGQGTTLTVSS VL: DIVMTQSHKFMSTSVGDRVSITCKASQNVGTAVAWYQQKPGQSPKLLIYSASYRYSGVPDRFTGSRYGTDFTLTISNVQSEDLADYLCQQYSNYITFGGGTKLELKRG | > 70 | – | –
chimeric bispecific antibody (A69/B26/BBA) (bispecific antibody, V domains shown) VH 1: MEVQLQQSGAELVKPGASVKLSCTASGFNIKDYYMHWIKQRPGQGLEWLGYINPSSGYTKYNRKFRDKATLTADKSSSTAYMQLTSLTYEDSAVYYCARGGNGYYLDYWGQGTTLTVSS VH 2: MQVQLQQSGPELVKPGASVKISCKASGYTFTDNNMDWVKQSHGKGLEWIGDINTKSGGSIYNQKFKGKATLTIDKSSSTAYMELRSLTSEDTAVYYCARRRSYGYYFDYWGQGTTLTVSS VL: DIVMTQSHKFMSTSVGDRVSITCKASQNVGTAVAWYQQKPGQSPKLLIYSASYRYSGVPDRFTGSRYGTDFTLTISNVQSEDLADYLCQQYSNYITFGGGTKLELKR | > 80 | ≥ 80 | –
bispecific antibody of A69H, B26H and hybrid L chain BBa (bispecific antibody, V domains shown) VH 1: MEVQLQQSGAELVKPGASVKLSCTASGFNIKDYYMHWIKQRPGQGLEWLGYINPSSGYTKYNRKFRDKATLTADKSSSTAYMQLTSLTYEDSAVYYCARGGNGYYLDYWGQGTTLTVSS VH 2: MQVQLQQSGPELVKPGASVKISCKASGYTFTDNNMDWVKQSHGKGLEWIGDINTKSGGSIYNQKFKGKATLTIDKSSSTAYMELRSLTSEDTAVYYCARRRSYGYYFDYWGQGTTLTVSS VL: DIVMTQSHKFMSTSIGDRVSITCKASQNVGTAVAWYQQKPGQSPKLLIYSASYRYSGVPDRFTGSRYGTDFTLTISNVQSEDLADYLCQQYSSYLTFGGGTKLELKR | > 80 | ≥ 80 | –
A44/B26 (bispecific antibody, V domains shown) VH 1: MQVQLQQSGAELAKPGASVKLSCKASGYTFTSSWMHWIKQRPGQGLEWLGYINPSSGYTKYNRKFRDKATLTADKSSSTAYMQLTSLTYEDSAVYYCARGGNGYYFDYWGQGTTLTVSS VL 1: DIVMTQSHKFMSTSVGDRVSITCKASQDVGTAVAWYQQKPGQSPKLLIYWASTRHTGVPDRFTGSRYGTDFTLTISNVQSEDLADYLCQQYSNYITFGGGTKLELKR VH 2: MQVQLQQSGPELVKPGASVKISCKASGYTFTDNNMDWVKQSHGKGLEWIGDINTKSGGSIYNQKFKGKATLTIDKSSSTAYMELRSLTSEDTAVYYCARRRSYGYYFDYWGQGTTLTVSS VL 2: DIVLTQSQKFMSTSVGDRVSITCKASQNVGTAVAWYQQKPGQSPKALIYSASYRYSGVPDRFTGSGSGTDFTLTISNVQSEDLAEYFCQQYNSYPLTFGAGTKLEIKR | – | ≥ 50 | > 50
commonly shared L chain antibody of A44 H chain, B26 H chain and hybrid L chain ABA(G) (bispecific antibody, V domains shown) VH 1: MQVQLQQSGAELAKPGASVKLSCKASGYTFTSSWMHWIKQRPGQGLEWLGYINPSSGYTKYNRKFRDKATLTADKSSSTAYMQLTSLTYEDSAVYYCARGGNGYYFDYWGQGTTLTVSS VH 2: MQVQLQQSGPELVKPGASVKISCKASGYTFTDNNMDWVKQSHGKGLEWIGDINTKSGGSIYNQKFKGKATLTIDKSSSTAYMELRSLTSEDTAVYYCARRRSYGYYFDYWGQGTTLTVSS VL: DIVMTQSHKFMSTSVGDRVSITCKASQDVGTAVAWYQQKPGQSPKLLIYSASYRYSGVPDRFTGSRYGTDFTLTISNVQSEDLADYLCQQYSNYITFGGGTKLELKRG | > 60 | ≥ 60 | –
